Assay results taken from patent US20080207488.

T1: recombinant human β2-glycoprotein I, P02749
T1 chain: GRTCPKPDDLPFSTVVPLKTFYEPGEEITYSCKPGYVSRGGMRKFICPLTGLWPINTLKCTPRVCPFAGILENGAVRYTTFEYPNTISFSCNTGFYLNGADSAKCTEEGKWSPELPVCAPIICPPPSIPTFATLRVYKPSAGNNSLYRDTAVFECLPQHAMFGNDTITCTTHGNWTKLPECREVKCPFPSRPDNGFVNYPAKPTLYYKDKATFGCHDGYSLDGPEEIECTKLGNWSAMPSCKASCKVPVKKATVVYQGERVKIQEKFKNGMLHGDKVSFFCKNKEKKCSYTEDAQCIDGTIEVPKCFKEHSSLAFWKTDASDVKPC

T2: β2-glycoprotein I purified from fresh human plasma, P02749
T2 chain: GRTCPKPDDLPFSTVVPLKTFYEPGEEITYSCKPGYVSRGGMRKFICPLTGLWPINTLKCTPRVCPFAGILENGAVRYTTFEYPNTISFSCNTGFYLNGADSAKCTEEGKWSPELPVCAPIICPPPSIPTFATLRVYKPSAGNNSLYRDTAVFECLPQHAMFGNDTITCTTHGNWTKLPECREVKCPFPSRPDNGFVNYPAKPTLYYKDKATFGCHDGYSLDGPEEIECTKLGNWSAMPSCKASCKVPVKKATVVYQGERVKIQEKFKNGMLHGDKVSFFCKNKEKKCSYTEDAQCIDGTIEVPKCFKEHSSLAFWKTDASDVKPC

T3: freshly dissolved FP13 K157G
T3 chain: KRLEVDIDIGIRS

T4: human fibrin α-chain (148-160) amyloid fragment with Lys157Gly mutation (FP13), aggregated
T4 chain: KRLEVDIDIGIRS

T5: non-amyloid fragment FP10 of human fibrin α-chain (148-157)
T5 chain: KRLEVDIDIK


How the values were obtained:
[1] = biological target: T1, recombinant human β2-glycoprotein I, …
[2] = biological target: T2, β2-glycoprotein I purified from fresh …
[3] = biological target: T3, freshly dissolved FP13 K157G
[4] = biological target: glycated human haemoglobin (Hb-AGE), P69905
[5] = biological target: human amyloid-β (Aβ) (1-40) Dutch type
[6] = biological target: T4, human fibrin α-chain (148-160) amyloid …
[7] = biological target: native haemoglobin (Hb), P69905
[8] = biological target: T5, non-amyloid fragment FP10 of human …

Sequence of glycated human haemoglobin (Hb-AGE), P69905 (P69905 2-142, chain 1 of 2): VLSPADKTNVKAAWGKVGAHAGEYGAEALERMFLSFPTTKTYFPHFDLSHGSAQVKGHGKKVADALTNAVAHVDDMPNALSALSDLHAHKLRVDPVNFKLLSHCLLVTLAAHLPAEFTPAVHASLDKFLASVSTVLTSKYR
Sequence of glycated human haemoglobin (Hb-AGE), P69905 (chain, as listed by the source, chain 2 of 2): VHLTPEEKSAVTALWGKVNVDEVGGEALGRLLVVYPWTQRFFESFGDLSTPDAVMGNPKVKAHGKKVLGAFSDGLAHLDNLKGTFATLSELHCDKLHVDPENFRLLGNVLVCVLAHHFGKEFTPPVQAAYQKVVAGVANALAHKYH
Sequence of native haemoglobin (Hb), P69905 (P69905 2-142, chain 1 of 2): as the sequence (P69905 2-142, chain 1 of 2) above
Sequence of native haemoglobin (Hb), P69905 (chain, as listed by the source, chain 2 of 2): as the sequence (chain, as listed by the source, chain 2 of 2) above

| Protein | tPA-mediated conversion of Plg to Pls (substrate S-2251) [1] | tPA-mediated conversion of Plg to Pls (substrate S-2251) [2] | activation of factor XII (conversion of Chromozym PK by kallikrein) (LAM12) | activation of factor XII (conversion of Chromozym PK by kallikrein) (TTR11) | factor XII auto-activation (substrate S-2222) [3] | factor XII auto-activation (substrate S-2222) [4] | activation of factor XII (conversion of Chromozym PK by kallikrein) [5] | factor XII auto-activation (substrate S-2222) [5] | activation of factor XII (conversion of Chromozym PK by kallikrein) [6] | factor XII auto-activation (substrate S-2222) [6] | activation of factor XII (conversion of Chromozym PK by kallikrein) (mIAPP) | factor XII auto-activation (substrate S-2222) [7] | activation of factor XII (conversion of Chromozym PK by kallikrein) [8] |
| --- | --- | --- | --- | --- | --- | --- | --- | --- | --- | --- | --- | --- | --- |
| tissue-type plasminogen activator (tPA) (protein) SYQVICRDEKTQMIYQQHQSWLRPVLRSNRVEYCWCNSGRAQCHSVPVKSCSEPRCFNGGTCQQALYFSDFVCQCPEGFAGKCCEIDTRATCYEDQGISYRGTWSTAESGAECTNWNSSALAQKPYSGRRPDAIRLGLGNHNYCRNPDRDSKPWCYVFKAGKYSSEFCSTPACSEGNSDCYFGNGSAYRGTHSLTESGASCLPWNSMILIGKVYTAQNPSAQALGLGKHNYCRNPDGDAKPWCHVLKNRRLTWEYCDVPSCSTCGLRQYSQPQFRIKGGLFADIASHPWQAAIFAKHRRSPGERFLCGGILISSCWILSAAHCFQERFPPHHLTVILGRTYRVVPGEEEQKFEVEKYIVHKEFDDDTYDNDIALLQLKSDSSRCAQESSVVRTVCLPPADLQLPDWTECELSGYGKHEALSPFYSERLKEAHVRLYPSSRCTSQHLLNRTVTDNMLCAGDTRSGGPQANLHDACQGDSGGPLVCLNDGRMTLVGIISWGLGCGQKDVPGVYTKVTNYLDWIRDNMRP | Recombinant β2GPI, but not β2GPI purified from fresh plasma stimulate tPA-mediated conversion of Plg to Pls | but not β2GPI purified from fresh plasma | – | – | – | – | – | – | – | – | – | – | – |
| factor XII purified from human plasma (protein) IPPWEAPKEHKYKAEEHTVVLTVTGEPCHFPFQYHRQLYHKCTHKGRPGPQPWCATTPNFDQDQRWGYCLEPKKVKDHCSKHSPCQKGGTCVNMPSGPHCLCPQHLTGNHCQKEKCFEPQLLRFFHKNEIWYRTEQAAVARCQCKGPDAHCQRLASQACRTNPCLHGGRCLEVEGHRLCHCPVGYTGAFCDVDTKASCYDGRGLSYRGLARTTLSGAPCQPWASEATYRNVTAEQARNWGLGGHAFCRNPDNDIRPWCFVLNRDRLSWEYCDLAQCQTPTQAAPPTPVSPRLHVPLMPAQPAPPKPQPTTRTPPQSQTPGALPAKREQPPSLTRNGPLSCGQRLRKSLSSMTRVVGGLVALRGAHPYIAALYWGHSFCAGSLIAPCWVLTAAHCLQDRPAPEDLTVVLGQERRNHSCEPCQTLAVRSYRLHEAFSPVSYQHDLALLRLQEDADGSCALLSPYVQPVCLPSGAARPSETTLCQVAGWGHQFEGAEEYASFLQEAQVPFLSLERCSAPDVHGSSILPGMLCAGFLEGGTDACQGDSGGPLVCEDQAAERRLTLQGIISWGSGCGDRNKPGVYTDVAYYLAWIREHTVS | – | – | LAM12 and TTR11 stimulate factor XII activation, to a similar extent as kaolin | LAM12 and TTR11 stimulate factor XII activation, to a similar extent as kaolin | did not or hardly auto-activate factor XII (not shown) | All three amyloid-like aggregates are able to induce factor XII auto-activation | amyloid-like peptide aggregates of FP13 and Aβ stimulate the activation of factor XII | All three amyloid-like aggregates are able to induce factor XII auto-activation; the potency of the Aβ(1-40) E22Q was somewhat lower | amyloid-like peptide aggregates of FP13 and Aβ stimulate the activation of factor XII | All three amyloid-like aggregates are able to induce factor XII auto-activation | non-amyloid controls FP10 and mIAPP do not activate factor XII | did not or hardly auto-activate factor XII (not shown) | non-amyloid controls FP10 and mIAPP do not activate factor XII |
